From the supplement of paper PMC9732359 come the findings set out here.

This data set in a line: protein stability index of a GFP-peptide fusion (yeast GPS) (PSI 1-4); higher = more stable; sorted into four equal gates, so the index is relative within each strain. The gist of the method:
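Tiled 17-residue yeast protein peptides were fused downstream of GFP in a plasmid that also expresses Cherry, and the pooled library was carried in yeast. Mid-log cultures in leucine-free medium were sorted into four equal gates by GFP/Cherry fluorescence ratio, and plasmids from each gate were PCR-amplified and Illumina-sequenced, with reads assigned to strains by barcodes. The protein stability index for each peptide was each gate's read frequency times its gate number, summed.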

± gives the uncertainty stated by the source.

With QGNPKKRPGKLSDYIPG [CYT1], the protein stability index reads like this: (doa10∆) 3.17 ± 0.066; (pdr5∆) 3.24 ± 0.067; (san1∆) 3.23 ± 0.044; (ubr1∆) 3.17 ± 0.032.
Turning to NILPFLWGPHGLNSDAE [ECM29], the protein stability index (doa10∆) is 2.86 ± 0.21, the protein stability index (pdr5∆) was determined as 2.71 ± 0.16, the protein stability index (san1∆) is 2.54 ± 0.14 and the protein stability index (ubr1∆) came out at 2.42 ± 0.2.
GIFEKAKAKAVTSKVRN [YMR153W/NUP53] had a protein stability index (doa10∆) of 2.24 ± 0.1, a protein stability index (pdr5∆) of 2.59 ± 0.26, a protein stability index (san1∆) of 2.51 ± 0.15 and a protein stability index (ubr1∆) of 2.38 ± 0.085.
For the sequence SPDSTVNRSVVVSAVGE [YAR002W/NUP60], the protein stability index amounted to 3.11 ± 0.084 (doa10∆), 2.91 ± 0.088 (pdr5∆), 3.28 ± 0.063 (san1∆) and 2.79 ± 0.061 (ubr1∆).
On to LSEIESLDEILLPANLL [SRP68], for which the protein stability index was found to be 3.14 ± 0.053 (doa10∆), 3.08 ± 0.052 (pdr5∆), 3.02 ± 0.042 (san1∆) and 3.037 ± 0.027 (ubr1∆).
As for SSTLGIDLEDIKEELTK [PCI8], the protein stability index (doa10∆) came out at 2.93 ± 0.091, the protein stability index (pdr5∆) turned out to be 3.1 ± 0.094, the protein stability index (san1∆) is 3.17 ± 0.1 and the protein stability index (ubr1∆) amounted to 3.02 ± 0.1.
In the same order, the values of QQQQQQQQRRQLTPQQQ [GAL11] are 2.764 ± 0.025, 2.826 ± 0.025, 2.877 ± 0.02 and 2.833 ± 0.022.
NRQAAASVVPSASSLVI [RPL12A]: the protein stability index runs as follows: (doa10∆) 1.73 ± 0.03; (pdr5∆) 2.17 ± 0.038; (san1∆) 1.98 ± 0.049; (ubr1∆) 1.83 ± 0.032.
For LYDRPLKPDLNKITNQG [NAS6] the same measures were 3.22 ± 0.096, 3.42 ± 0.1, 3.11 ± 0.07 and 3.4 ± 0.073.
On to INIKYLRLDGHTKSDER [SNF2], for which the protein stability index was determined as 3.1 ± 0.083 (doa10∆), 2.11 ± 0.063 (pdr5∆), 2.29 ± 0.098 (san1∆) and 2.79 ± 0.063 (ubr1∆).
The sequence PFFARFKLRIQTTEGYD [RPB11] had a protein stability index (pdr5∆) of 1.37 ± 0.12 and a protein stability index (san1∆) of 1.37 ± 0.26.
Turning to VVLYNYYLGQYYGCLEN [CSN12], the protein stability index reads like this: (doa10∆) 2.5 ± 0.17; (pdr5∆) 2.57 ± 0.15; (san1∆) 2.51 ± 0.11; (ubr1∆) 1.97 ± 0.13.
In turn, EEQKIVKKVVKEQTEAA [RPL34A] came in with a protein stability index (pdr5∆) of 3.23 ± 0.16, a protein stability index (san1∆) of 3.27 ± 0.061 and a protein stability index (ubr1∆) of 3.13 ± 0.15.
Consider RGYTCQFVDMVLPNTAL [FAS1], for which the protein stability index reads like this: (doa10∆) 1.75 ± 0.075; (pdr5∆) 1.88 ± 0.048; (san1∆) 1.32 ± 0.089; (ubr1∆) 1.53 ± 0.05.
Consider FNAGSNPPSYQSSEDVI [RPB7], for which the protein stability index was found to be 2.83 ± 0.24 (doa10∆), 2.67 ± 0.21 (pdr5∆), 2.72 ± 0.27 (san1∆) and 2.65 ± 0.14 (ubr1∆).
For QNSANNNSDDEDVDDEE [IRR1] the same measures were 3.28 ± 0.14, 3.22 ± 0.15, 3.62 ± 0.087 and 3.34 ± 0.1.
Regarding KSTDNSAIRQVFERFKT [IRR1], the protein stability index reads like this: (doa10∆) 2.21 ± 0.046; (pdr5∆) 2.7 ± 0.046; (san1∆) 2.19 ± 0.062; (ubr1∆) 2.8 ± 0.045.
With RAQRVAEKRDALLKEDA [RPL19A], the protein stability index reads like this: (doa10∆) 3.2 ± 0.17; (pdr5∆) 3.04 ± 0.13; (san1∆) 2.89 ± 0.14; (ubr1∆) 3.47 ± 0.091.
In the same order, the values of KEECQIEDDGIIESHLI [CSN9] are 3.59 ± 0.25, 3.23 ± 0.14, 3.19 ± 0.084 and 3.02 ± 0.23.
For GKGESVIFNDNVTETYS [SIR3], the protein stability index is, setting by setting: (doa10∆) 3.08 ± 0.21; (pdr5∆) 2.92 ± 0.14; (san1∆) 2.88 ± 0.074; (ubr1∆) 2.87 ± 0.2.
Consider SKLSLSRTDAVRCKDCG [RPC10], for which the protein stability index (doa10∆) is 1.77 ± 0.076, the protein stability index (pdr5∆) worked out at 1.9 ± 0.064, the protein stability index (san1∆) was 1.85 ± 0.13 and the protein stability index (ubr1∆) was 1.9 ± 0.076.
As for NSPTSFFDGSASSTPIP [YOR098C/NUP1], the protein stability index reads like this: (doa10∆) 3.19 ± 0.07; (pdr5∆) 2.8 ± 0.049; (san1∆) 2.94 ± 0.052; (ubr1∆) 2.84 ± 0.046.
For TISILAAPSGNYKQLTL [RRP43] the same measures were 1.77 ± 0.035, 1.94 ± 0.032, 1.92 ± 0.058 and 1.89 ± 0.033.
For HADKDTFSSSISTYIST [POP8] the same measures were 2.61 ± 0.045, 2.58 ± 0.037, 2.41 ± 0.048 and 2.69 ± 0.046.
For IQLSTVNRQSPLFFVDL [RGR1] the same measures were 1.59 ± 0.08, 1.69 ± 0.094, 1.9 ± 0.12 and 1.76 ± 0.099.
